Laboratory results as given in patent US20170166644A1 (SORRENTO THERAPEUTICS, published 2017).

Legend:
[1] = molecular target: T1, VEGFR2; experiment: IC50 measurement, summary table; assay not stated
T1 construct: also called KDR
T1 sequence (P35968 20-764): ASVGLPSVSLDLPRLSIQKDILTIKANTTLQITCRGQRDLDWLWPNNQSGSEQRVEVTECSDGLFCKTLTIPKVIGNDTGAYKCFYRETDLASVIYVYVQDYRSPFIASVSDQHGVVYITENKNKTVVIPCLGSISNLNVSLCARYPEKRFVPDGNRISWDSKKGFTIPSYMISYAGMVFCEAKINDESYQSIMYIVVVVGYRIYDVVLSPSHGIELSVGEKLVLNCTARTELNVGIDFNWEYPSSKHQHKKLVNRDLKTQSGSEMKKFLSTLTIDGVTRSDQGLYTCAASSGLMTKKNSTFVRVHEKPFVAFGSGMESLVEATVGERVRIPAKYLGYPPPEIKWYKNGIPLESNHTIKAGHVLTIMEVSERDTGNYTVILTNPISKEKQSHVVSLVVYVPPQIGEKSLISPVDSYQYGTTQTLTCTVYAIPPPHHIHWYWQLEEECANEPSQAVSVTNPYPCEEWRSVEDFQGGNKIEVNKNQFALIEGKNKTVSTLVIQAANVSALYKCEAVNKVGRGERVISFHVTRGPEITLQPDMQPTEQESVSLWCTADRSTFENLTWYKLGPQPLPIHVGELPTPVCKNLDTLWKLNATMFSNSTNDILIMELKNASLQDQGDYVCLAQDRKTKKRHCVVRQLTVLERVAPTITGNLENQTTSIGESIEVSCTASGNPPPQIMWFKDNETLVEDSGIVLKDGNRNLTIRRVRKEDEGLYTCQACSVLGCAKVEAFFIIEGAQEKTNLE

[2] = molecular target: T1, VEGFR2; experiment: Biacore
[3] = molecular target: T1, VEGFR2; experiment: EC50 measurement, summary table; assay not stated
[4] = molecular target: T2, VEGFR2 on HUVECs (human, UniProt P35968 20-1356); experiment: cell-based or functional assay
T2 sequence (P35968 20-1356): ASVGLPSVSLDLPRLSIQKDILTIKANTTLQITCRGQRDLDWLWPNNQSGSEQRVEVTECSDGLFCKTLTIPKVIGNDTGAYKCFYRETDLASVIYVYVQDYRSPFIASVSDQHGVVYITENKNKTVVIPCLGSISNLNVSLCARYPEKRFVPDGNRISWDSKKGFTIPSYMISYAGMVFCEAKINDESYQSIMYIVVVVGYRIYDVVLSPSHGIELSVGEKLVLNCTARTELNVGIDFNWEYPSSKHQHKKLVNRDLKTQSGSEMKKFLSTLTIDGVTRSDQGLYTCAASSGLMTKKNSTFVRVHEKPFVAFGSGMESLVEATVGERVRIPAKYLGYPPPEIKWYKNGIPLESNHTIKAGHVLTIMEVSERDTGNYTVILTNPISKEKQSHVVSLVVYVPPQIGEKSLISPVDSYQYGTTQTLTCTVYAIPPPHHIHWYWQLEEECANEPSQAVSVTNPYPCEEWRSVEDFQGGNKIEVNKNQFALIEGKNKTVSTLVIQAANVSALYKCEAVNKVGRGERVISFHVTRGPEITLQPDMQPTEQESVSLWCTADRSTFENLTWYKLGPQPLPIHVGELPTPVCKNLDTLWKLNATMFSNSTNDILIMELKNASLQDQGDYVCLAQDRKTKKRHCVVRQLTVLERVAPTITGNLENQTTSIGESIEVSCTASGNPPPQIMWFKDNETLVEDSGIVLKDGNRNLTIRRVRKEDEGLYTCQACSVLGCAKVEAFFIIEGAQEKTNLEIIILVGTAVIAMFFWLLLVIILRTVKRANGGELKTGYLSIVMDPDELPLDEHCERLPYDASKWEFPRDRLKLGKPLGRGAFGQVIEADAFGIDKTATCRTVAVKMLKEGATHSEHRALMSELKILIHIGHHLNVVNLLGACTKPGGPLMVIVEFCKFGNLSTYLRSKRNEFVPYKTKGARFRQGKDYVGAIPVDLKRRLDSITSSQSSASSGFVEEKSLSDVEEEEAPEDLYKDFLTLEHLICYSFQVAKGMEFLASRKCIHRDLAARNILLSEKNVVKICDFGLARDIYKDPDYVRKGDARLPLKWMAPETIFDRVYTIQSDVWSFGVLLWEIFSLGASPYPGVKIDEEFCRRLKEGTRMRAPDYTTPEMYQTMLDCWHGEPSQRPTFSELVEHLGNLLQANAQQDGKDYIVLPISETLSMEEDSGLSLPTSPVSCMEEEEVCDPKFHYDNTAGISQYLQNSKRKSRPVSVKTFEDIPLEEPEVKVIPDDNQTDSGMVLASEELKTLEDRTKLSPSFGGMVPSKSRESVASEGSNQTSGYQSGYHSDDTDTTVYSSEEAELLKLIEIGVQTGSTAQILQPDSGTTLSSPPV

[5] = molecular target: T2, VEGFR2 on HUVECs; experiment: flow cytometry on HUVECs, MFI against antibody concentration, non-linear fit (Example 6); unit taken from the axis label 'Antibody Conc (M)', log scale
Experimental: (§1) This example illustrates in vitro data for VK-B8 cellular EC₅₀ measurements. Protocol: 50,000 HUVECs were aliquoted into the wells of a 96-well, v-bottom plate in 100 ul FACS Buffer (PBS+2% FBS). A twelve point, 3× dilution curve of VK-B8 was made in FACS Buffer starting at 50 μg/ml (3.33×10⁻⁷ M). Cells were spun down, washed 1× with FACS Buffer, and then resuspended in 25 μl of antibody solution in triplicate. […] Cells were further incubated for 0.5 hr. and then washed 1× with FACS Buffer. Cells were resuspended in 25 μl FACS Buffer and the median fluorescence intensity in the FL2-H channel was determined using the Intellicyt HTFC flow cytometer.
(§2) Results: The cell binding EC₅₀ for VK-B8 on HUVECs was determined to be 1.3 nM. Data was analyzed and plotted in Graph Pad Prizm using non-linear regression fit. Data points are shown (FIG. 4) as the median fluorescence intensity (MFI) of positively labeled cells +/− Std Error.

[6] = molecular target: soluble VEGFR2-Fc; experiment: blocking of VEGF binding to soluble VEGFR2-Fc (FIG. 2)
Chain of soluble VEGFR2-Fc (P35968 20-764): as the sequence (P35968 20-764) above

[7] = molecular target: T2, VEGFR2 on HUVECs; experiment: cell binding to HUVE cells, flow cytometry (FIG. 3 legend); FIG. 3 legend, unrounded value
Experimental: as §1, §2

[8] = molecular target: soluble VEGFR2-Fc; experiment: blocking of VEGF binding to soluble VEGFR2-Fc, VK-B8 titrated, readout OD 450; plate format not described; unit taken from the axis label 'VK-B8 [log M]'

B1: VB-A9 (antibody, V domains shown)
VH: EVQLVESGGGLVKPGGSLRLSCAASGFTFSSYSMNWVRQAPGKGLEWVSSISSGSSYIYYADSLKGRFTISRDNAKNSLYLQMNSLRAEDTAVYYCARDFGNWGQGTLVTVSS
VL: QSALTQPRSVSASPGQSVTISCTGTSSDVGGYDYVSWYQQHPGKAPKLMIYEVSNRPSGVSNRFSGSKSGNTASLSISGLQAEDEADYYCSSYTSTSSPVVFGGGTKLTVL
B1 showed an IC50 [1] of 2.05 nM, a Kd [2] of 3.02 nM and a koff [2] of 0.000496 s⁻¹. The kon [2] was 164000 M⁻¹ s⁻¹ and the EC50 [3] was 0.25 nM.

B2: VR-B2 (antibody, V domains shown)
VH: EVQLLESGGGLVQPGGSLRLSCAASGFTFSSYAMHWVRQAPGKGLEWVAVISYDGSNKYYADSVKGRFTISRDNSKNTLYLQMNSLRAEDTAVYYCARDLGAASYWYFDLWGRGTLVTVSS
VL: DIQLTQSPPSVSASVGDRVTITCRASQDISTWLAWYQQKPGSAPKVLIYAASTFQSGVPSRFRGSGSGTYFTLTISGLQPEDFATYYCQQGNSFPPTFGQGTKLEIK
B2 showed an EC50 [3] of 0.747 nM.

B3: VK-B8 (antibody, V domains shown)
VH: QVQLVQSGAEVKKPGSSVKVSCKAYGGTFGSYGVSWVRRAPGQGLEWMGRLIPIFGTRDYAQKFQGRVTLTADESTNTAYMELSSLRSEDTAVYYCARDGDYYGSGSYYGMDVWGQGTLVTVSS
VL: ETTLTQSPATLSVSPGERATVSCRASQSLGSNLGWFQQKPGQAPRLLIYGASTRATGIPARFSGSGSGTEFTLTISSLQSEDFAVYFCQQYNDWPITFGQGTRLEIK
notes: The printed VH starts with MA; also called STI-A0168; anti-VEGFR2 antibody VK-B8
With B3 the IC50 [1] was 2.04 nM, the “IC50 for VK-B8 inhibition of VEGF-induced p44/p42 MAPK (Erk1/2) phosphorylation in HUVECs, phospho-ELISA” value [4] was 0.08 nM and the “IC50 value for the inhibition of VEGF-induced HUVEC cell migration by VK-B8 (FIG. 14 legend)” value [4] was 0.53 nM. For the same binder, the “IC50 value for the inhibition of VEGF-induced HUVEC cell proliferation by VK-B8 (FIG. 13 legend)” value [4] was 14.9 nM, the “IC50 value for the inhibition of VEGF-induced HUVEC migration by VK-B8 (modified Boyden chamber)” value [4] was 0.5 nM and the “IC50 value for the inhibition of VEGF-induced HUVEC proliferation by VK-B8” value [4] was 14 nM. For the same binder, the EC50 [5] was 1.3 nM, the IC50 [6] was ~0.77 nM and the EC50 [7] was ~1.3 nM. The IC50 [8] was 0.771 nM, the Kd [2] was 0.121 nM and the koff [2] was 8.73e-05 s⁻¹. It also gave a kon [2] of 724000 M⁻¹ s⁻¹ and an EC50 [3] of 0.25 nM.

B4: VR-B4 (antibody, V domains shown)
VH: QVQLVQSGAEVKKPGSSVKVSCKAYGGTFGSYGVSWVRRAPGQGLEWMGRLIPIFGTRDYAQKFQGRVTLTADESTNTAYMELSSLRSEDTAVYYCARDGDYYGSGSYYGMDVWGQGTTVTVSS
VL: SYELTQPASVSGSPGQSITISCTGSSSDVGGYNFVSWYRQHAGKAPKLMIYDVTNRPSGVSTRFSGSKSGTTASLTISGLQPDDEAHYYCSSYTTTSTWVFGGGTKLTVL
B4 gave an EC50 [3] of 24.3 nM.

B5: RV-H5 (antibody, V domains shown)
VH: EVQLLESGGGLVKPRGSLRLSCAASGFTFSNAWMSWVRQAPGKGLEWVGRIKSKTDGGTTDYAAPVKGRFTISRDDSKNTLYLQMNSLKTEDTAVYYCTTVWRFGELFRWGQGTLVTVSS
VL: QAGLTQPPSVSVSPGQTASITCSGDKLGDKYISWYQQKPGQSPVMVIFQDTKRPSGIPERFSGSNSGNTATLTISGTQAMDEADYYCQAWDTSTVFGGGTKLTVL
With B5 the IC50 [1] was 5.79 nM, the Kd [2] was 0.815 nM and the koff [2] was 0.00225 s⁻¹. For the same binder, the kon [2] was 2.76e+06 M⁻¹ s⁻¹ and the EC50 [3] was 0.323 nM.

B6: VR-E3 (antibody, V domains shown)
VH: EVQLVESGGGLVKPGGSLRLSCAASGFTFSSYSMNWVRQAPGKGLEWVSSISSASSYIYYADSVKGRFTISRDNAKKSLYLQLNSLTVEDTAVYYCAREYWGSPDYWGRGTLVTVSS
VL: QPVLTQPPSASGSPGQSVTISCTGTSSDVGGYNYVSWYQQHPGKAPKLMIYDVNNRPSGVPDRFSGSKSGNTASLTISGLQAEDEADYYCSSYTSSSTRVFGGGTKLTVL
With B6 the IC50 [1] was 9.32 nM and the EC50 [3] was 1.29 nM.

B7: VB-E1 (antibody, V domains shown)
VH: QVQLVESGAEVKKPGASVKVSCKASGYTFTNYYIHWVRQAPGQGLEWMGIINPSSGSTNYAQKFQGRVTMTRDTSTSTVYMELSSLRSEDTAVYYCARQRWDLLDDAFDIWGQGTMVTVSS
VL: DIVMTQSPDSLAVSLGERATINCKTSQSVLYNANNKNYLNWYQQKPGQPPKLLIYWASARESGVPDRFSGSGSGTDFTLTIRSLQPDDFATYYCQQAISFPLTFGGGTKVEIK
In the case of B7, the EC50 [3] is reported as 0.5 nM.

B8: VB-A3 (antibody, V domains shown)
VH: QVQLVQSGAEVKKPGASVKVSCKASGHTFNYYYMHWVRQAPGQGLEWMGQTNLNSGGTNYAPKFQGRVTMTRDTSISTAYMELSSLRSDDTAVYYCANLNSGWFHFENWGQGTLVTVSS
VL: SYELTQPPSVSVAPGKTASITCGGNNIGSKSVHWYQQKPGQAPVLVIYYDRDRPSGIPERFSGSNSGNTATLTISRVEAGDEADYYCQVWDSSSYHPVFGGGTKLTVL
For B8, the Kd [2] was 3.09 nM, the koff [2] was 0.012 s⁻¹ and the kon [2] was 3.88e+06 M⁻¹ s⁻¹.
